Results published in patent publication US8008542B2, “Compositions, cells, and plants that include BKI1, a negative regulator of BRI1-mediated BR signaling” (The Salk Institute for Biological Studies, priority 2007, dated 2011).

Legend:
TTL = target: T1, TTL (Arabidopsis thaliana, UniProt Q9LVM5); assay: Yeast two-hybrid interaction with TTL; assay type: binding
T1 construct: full length TTL, and full-length BIN2 were cloned into the pDBLeu vector; expressed in transfected cells; host or cells: yeast strain MaV203
T1 sequence (Q9LVM5 1-324): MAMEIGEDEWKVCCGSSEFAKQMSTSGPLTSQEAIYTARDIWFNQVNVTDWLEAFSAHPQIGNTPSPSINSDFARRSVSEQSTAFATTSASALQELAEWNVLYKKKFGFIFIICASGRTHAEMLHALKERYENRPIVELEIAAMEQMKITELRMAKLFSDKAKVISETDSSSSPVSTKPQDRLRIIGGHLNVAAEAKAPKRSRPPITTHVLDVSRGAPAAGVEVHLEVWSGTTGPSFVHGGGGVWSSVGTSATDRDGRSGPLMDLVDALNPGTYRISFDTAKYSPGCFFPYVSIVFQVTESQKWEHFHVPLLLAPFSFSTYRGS
Experimental: (§1) A ProQuest Two-Hybrid system with Gateway technology (Invitrogen) was used. […] The full-length (BKI1-FL), and various truncated proteins, 1-252 (BKI1-ΔCT1), 1-299 (BKI1-ΔCT2), and 253-337 (BKI1-CT) of BKI1 were cloned into the pEXPAD502 vector. The kinase domain of NIK1 (NIK1-KD) (Fontes et al. (2004) Genes Dev. 18:2545), BAK1 (BAK1-KD), CLV1 (CLV1-KD), BRL1 (BRL1-KD), BRL3 (BRL3-KD), full length TTL, and full-length BIN2 were cloned into the pDBLeu vector. Interactions were tested on SD medium minus Leu, Trp, and His, and containing 25 mM 3-Amino-1,2,4-Triazole (3AT), using the yeast strain MaV203 according to the manufacturer's manual.

BAK1 = target: T2, BAK1 (Arabidopsis thaliana, UniProt Q94F62); assay: Yeast two-hybrid interaction with BAK1-KD; assay type: binding
T2 construct: kinase domains of other receptor-like kinases tested, including BAK1 and NIK1; expressed in transfected cells; host or cells: yeast strain MaV203
T2 sequence (Q94F62 289-576 limits assumed): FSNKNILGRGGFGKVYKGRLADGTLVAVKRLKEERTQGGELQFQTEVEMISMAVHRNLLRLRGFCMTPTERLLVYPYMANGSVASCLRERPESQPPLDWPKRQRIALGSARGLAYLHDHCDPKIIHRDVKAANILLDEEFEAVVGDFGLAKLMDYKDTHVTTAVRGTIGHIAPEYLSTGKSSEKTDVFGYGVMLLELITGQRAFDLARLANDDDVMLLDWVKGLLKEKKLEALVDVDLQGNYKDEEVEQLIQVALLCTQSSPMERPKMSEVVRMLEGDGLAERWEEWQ
Experimental: as §1

[1] = target: kinase-inactive BRI1 (mBRI1-KD) (Arabidopsis thaliana, UniProt O22476, K911E); details: yeast two-hybrid, ONPG liquid culture assay
kinase-inactive BRI1 (mBRI1-KD), sequence (O22476 828-1196 K911E): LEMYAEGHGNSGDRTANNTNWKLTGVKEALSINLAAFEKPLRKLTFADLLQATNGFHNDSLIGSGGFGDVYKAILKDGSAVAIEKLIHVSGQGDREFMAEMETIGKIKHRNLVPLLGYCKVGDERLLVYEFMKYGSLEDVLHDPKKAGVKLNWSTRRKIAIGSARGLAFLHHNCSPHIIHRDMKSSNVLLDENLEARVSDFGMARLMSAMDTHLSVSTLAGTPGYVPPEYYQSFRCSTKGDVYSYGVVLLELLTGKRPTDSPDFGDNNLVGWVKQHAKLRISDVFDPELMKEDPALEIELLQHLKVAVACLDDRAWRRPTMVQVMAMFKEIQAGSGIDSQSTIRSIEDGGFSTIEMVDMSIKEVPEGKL
Experimental: as §1

Arabidopsis seedlings = assay: Hypocotyl length and growth phenotype of transgenic lines; assay type: in vivo; details: over-expression from 35S promoter in Col-0
Experimental: BKI1's function in brassinosteroid signaling was explored in several ways. First, we made transgenic plants harboring a β-glucuronidase (GUS) reporter gene expressed from the promoter of BKI1 to observe the expression pattern of BKI1 (FIG. 1G-J) during development. […] To explore the function of BKI1 in BRI1 signaling, we created RNAi (RNA interference) lines to knockdown BKI1 RNA levels.
Seedlings were grown in short day photoperiods for seven days. At least ten short-day grown seedlings were measured. In FIGS. 2A-B the pBKI1::GUS line was used as a control (control). RNAi-2 and RNAi-7 were two independent RNAi knockdown lines for BKI1. In FIG. 2 C-E, phenotype of plants overexpressing BKI1-FLAG, with Col-0 (left) and a BKI1-FLAG line (right) are shown. 2C. Short-day grown seedlings. 2D. Long-day grown seedlings. 2E. Long-day grown adult plants. In FIG. 2F, leaf morphology of seedlings grown in short days. Col-0 (right) and a BKI1-FLAG line (left) are shown. In FIG. 2G, over-expression of BKI1-YFP leads to a reduced response (hypocotyl length) to BL. At least twenty short-day grown seedlings were measured. In FIG. 2H, over-expression of BKI1-YFP leads to an enhanced response to BRZ220. At least twenty dark-grown seedlings were measured. In FIG. 2I, over-expression of BKI1-YFP results in reduced accumulation of dephosphorylated BES1. […]

B1: BKI1: BRI1-interacting protein of 337 amino acids, negative regulator of brassinosteroid signaling (SEQ ID NO:1) (protein, listed as Arabidopsis thaliana)
chain: METNLQQVKNSSQTFSEKQNPKQEASPSPISSTCSSPSHDFSFTISLQPLSSSSKHISPTLRSPSKTTSSYQQTDPFAVDLSPADEIFFHGHLLPLHLLSHLPVSPRTSTGSYNDGFTLPVKDILPDQPTNNNNNTENAITNISTEAKDDNTEDKAEGEIRVKTKPIKSFSLFGLSKWRKGFESNEREQEQQQQKIKKPMSLDLSHAVKKYIRMLFQKRGNGTQFWNRRQTSSYSFSSSLMGPNGNSKTMINGSYNKRDLIRGRRGELFSAPASMRTSPTNSGHLRVSTAGLSSSSGSTSSSSSDSTMEELQAAIQAAIAHCKNSSAVDRDDKVKDS
- interaction with TTL in yeast (TTL): not
- interaction with kinase domain of BAK1 in yeast (BAK1): not
- interaction with kinase-inactive BRI1 relative to kinase active BRI1 [1]: stronger
- plant phenotype on over-expression (Arabidopsis seedlings): dwarf plants
